From the Human Domainome abundance scans (Beltran et al. 2025)

B1: Zinc finger homeobox protein 3, residues 2147 to 2202; numbered along this chain, Q15911 (parent)
chain: RPRTRITDDQLRVLRQYFDINNSPSEEQIKEMADKSGLPQKVIKHWFRNTLFKERQ
B2: DNA topoisomerase 3-alpha, residues 812 to 851; numbered along this chain, Q13472 (parent)
chain: TCNCGQEAVLLTVRKEGPNRGRQFFKCNGGSCNFFLWADS

Variants of: B1
Assay: abundance fitness (aPCA) (normalised: wild type 0, dead -1); higher = more abundant; growth selection in yeast, the domain comes from the species named
Details: Homo sapiens

Abundance fitness: each site, then its substitutions
F47: P -0.912; N -0.526; Q -0.801; S -0.632; Y -0.273; V -0.17; R -0.858; W -0.188
E54: C -0.149; Q 0.04; R -0.101; H 0.085; K -0.344; V -0.159; Y -0.277; L -0.127; P -0.367; I 0.235; M -0.107; T -0.048; S -0.128; D 0.046; G -0.291
Q56: R 0.166; T -0.298; A 0.09; H -0.5; G -0.419; P -0.261; D -0.844; S -0.57
F52: C 0.01; P -0.059; K 0.185; S -0.029; M 0.101; E -0.015; L 0.026; R 0.148; W -0.161; T 0.181; I -0.296; G 0.09; D -0.098; A 0.074; H -0.189; N 0.069; V 0.05
R48: C -0.446; F -0.023; A -0.042; M -0.06; Y -0.413; T -0.07; H -0.064; I -0.009; P -0.461; Q 0.008; S -0.121; W -0.306; K 0.107; N 0.102; G -0.118; E 0.057
T50: M -0.051; S -0.016; R -0.068; I -0.262; L -0.17; V -0.078; E -0.047; H -0.048; Q -0.16; F -0.341; A -0.11; P -0.335; N -0.044; K 0.094; D -0.264; C -0.314; G -0.187
N49: K 0.06; S -0.06; C 0.082; R 0.02; I -0.236; E 0.153; H -0.451; G -0.124; F -0.194; M -0.093; W -0.014; Q -0.075; A -0.061; Y -0.145; D 0.001; T -0.039; P -0.65; V -0.053; L -0.117
L51: C -0.088; W -0.34; H 0.016; A -0.037; V -0.119; S 0.015; R -0.013; T -0.059; Q 0.044; I -0.232; G -0.073; E -0.116; Y -0.007; N -0.014; M 0.047; P -0.224; F -0.214; K 0.244
R55: A -0.139; T -0.206; E -0.173; W -0.396; M -0.101; D 0.114; Q -0.054; F -0.146; N -0.356; Y -0.195; I -0.096; P -0.343; H 0.013; C -0.313; K -0.175; G -0.054; L -0.179
K53: M 0.09; D -0.18; E -0.006; I -0.124; N -0.041; V -0.167; A 0.017; Q 0.055; W -0.299; P -0.192; Y 0.141; C -0.269; F -0.195; T 0.017; S -0.056; L -0.163; R -0.033; H -0.07

Variants of: B2
Assay: as above
Details: Homo sapiens

Abundance fitness, by site and new letter:
C4: R -0.907; L -1.24; V -1.09; G -1.3
L10: K -0.065; R -0.126; E -0.168; T -0.068; S -0.33; V -0.357; A -0.284; G -0.474
A8: L -0.238; M -0.172; F -1; W -0.367; D -0.903; P 0.309; E -0.644; S -0.369; R -0.543
T12: V -0.47; A -0.59; R -0.437; W -0.721; Y -0.356; Q -0.24; C -0.39; S -0.475; P -0.528; H -0.383; E -0.722; K -0.347
L11: V 0.031; W -0.072; C -0.208; S 0.008; G 0.041; Q 0.054; T 0.027; A 0.012; R 0.049
E16: Y -0.421; N -0.018; S -0.344; P -0.196; A -0.185; G -0.266; C -0.342; L -0.246; K -0.071; R -0.165; T -0.13; V -0.5
Q23: W -0.574; D 0.021; G -0.21; H 0.03; T -0.219
C2: S -0.593; G -0.601; F -0.827
N3: D -0.006; R -0.539; L -0.32; G -0.739
R22: T -0.438; L -0.322; K 0.007; A -0.401; S -0.513; W -0.629; Q -0.623; N -0.459; G -0.565; M -0.677
T1: W -0.858; Q -0.24
N19: G -0.537; H 0.157; S -0.168; T -0.075; W -0.454; L -0.195; A -0.509; E -0.222; M 0.085; D 0.069; R -0.777; V -0.54
V13: S -0.234
K15: W -0.126; T 0.067; A -0.282; R 0.108; E 0.105; F -0.136; M -0.066; N 0.031; L -0.325; Y -0.299; G 0.318; D 0.06; C -0.342
R20: C -0.549; G -0.171; P -0.227; W -0.271; Y 0.007; D 0.22; H 0.199; S -0.167; E -0.039
G5: K -0.263; A -0.437; L -0.666; R -0.467; H -0.419; V -0.714; Q -0.259; S -0.377; C -0.484; M -0.267
Q6: A 0.229; G -0.182; R 0.038; V -0.338
G21: Q -0.614; R -0.643; V -0.763; W -0.89; S -0.469; A -0.367; N -0.208; I -0.787
G17: A -0.676; Q -0.681; I -0.263; P -0.89; W -0.684; L -0.606; R -0.665; V -0.675
R14: V -0.037; Y -0.052; K 0.089; N -0.166; W -0.075; S -0.094; T -0.052; C -0.15; M 0.06; G -0.092; A -0.006; E 0.001; P -0.312; L -0.099; Q 0.001
E7: P -0.023; G -0.221; R -0.18; S -0.233; H -0.142
V9: C -0.226; S -0.194; R -0.154; L 0.12; G -0.355; Q -0.04; P -0.227
F25: R -0.412; M -0.149; K -0.413
P18: R -0.252; V -0.149; W -0.716; C -0.482; L -0.352; A -0.058; H -0.353; M -0.336
